Results taken from the supplement of paper PMC9112550, “Optimization of the antimicrobial peptide Bac7 by deep mutational scanning” (BMC Biology, 2022).

Test system: Escherichia coli TOP10
Test: shrunken log2 fold change of peptide-encoding DNA abundance (4.5 h post-induction vs induction); higher = less antimicrobial activity (less host growth inhibition)
Conditions: time post-induction: 4.5 h; library: site-saturation at positions 5, 18, 19, 20
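Note: peptides expressed intracellularly from a pBAD plasmid library in pooled LB shake-flask culture, induced with 0.3% L-arabinose, DNA abundance read by NGS, three biological replicates, DESeq2 with apeglm shrinkage.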

Sequence	shrunken log2 fold change
RRIRLRPPRLPRPRPRPAYNPRP	-0.119
RRIRFRPPRLPRPRPRPVVAPRP	0.0597
RRIRSRPPRLPRPRPRPHCMPRP	-0.344
RRIRRRPPRLPRPRPRPYNQPRP	-0.207
RRIRTRPPRLPRPRPRPQRQPRP	0.455
RRIRRRPPRLPRPRPRPQMNPRP	-0.107
RRIRWRPPRLPRPRPRPICGPRP	0.0975
RRIRNRPPRLPRPRPRPKQVPRP	-0.173
RRIRVRPPRLPRPRPRPWSLPRP	-0.0384
RRIRDRPPRLPRPRPRPGHNPRP	-0.0961
RRIRIRPPRLPRPRPRPAVWPRP	0.141
RRIRCRPPRLPRPRPRPDKDPRP	-0.0474
RRIRGRPPRLPRPRPRPTYSPRP	-0.0883
RRIRGRPPRLPRPRPRPPSAPRP	1.07
RRIRPRPPRLPRPRPRPQRQPRP	0.109
RRIRTRPPRLPRPRPRPLTAPRP	-0.32
RRIRFRPPRLPRPRPRPISWPRP	-0.132
RRIRMRPPRLPRPRPRPENKPRP	1.48
RRIRCRPPRLPRPRPRPNGYPRP	-0.122
RRIRARPPRLPRPRPRPIIVPRP	-0.226
RRIRNRPPRLPRPRPRPSMLPRP	-0.145
RRIRGRPPRLPRPRPRPPFKPRP	0.659
RRIRDRPPRLPRPRPRPVYLPRP	-0.219
RRIRSRPPRLPRPRPRPCSRPRP	-0.179
RRIRFRPPRLPRPRPRPSCAPRP	-0.22

Sequence	shrunken log2 fold change
RRIRYRPPRLPRPRPRPFSVPRP	-0.313
RRIRKRPPRLPRPRPRPINIPRP	-0.0728
RRIRYRPPRLPRPRPRPQCRPRP	-0.23
RRIRKRPPRLPRPRPRPTCKPRP	0.347
RRIRMRPPRLPRPRPRPPIEPRP	0.309
RRIRVRPPRLPRPRPRPTHKPRP	0.333
RRIRVRPPRLPRPRPRPVRNPRP	0.105
RRIRRRPPRLPRPRPRPMQRPRP	0.24
RRIRHRPPRLPRPRPRPNRSPRP	-0.413
RRIRVRPPRLPRPRPRPHNKPRP	-0.63
RRIRTRPPRLPRPRPRPLRMPRP	-0.0962
RRIRSRPPRLPRPRPRPHDSPRP	0.0375
RRIRERPPRLPRPRPRPDHEPRP	-0.0943
RRIRHRPPRLPRPRPRPEIYPRP	-0.413
RRIRERPPRLPRPRPRPKNNPRP	-0.464
RRIRIRPPRLPRPRPRPEVRPRP	-0.0584
RRIRKRPPRLPRPRPRPLNVPRP	0.252
RRIRARPPRLPRPRPRPVMNPRP	-0.0562
RRIRSRPPRLPRPRPRPIGHPRP	-0.171
RRIRLRPPRLPRPRPRPLSVPRP	-0.0123
RRIRMRPPRLPRPRPRPMLDPRP	0.722
RRIRDRPPRLPRPRPRPHNAPRP	-0.0997
RRIRKRPPRLPRPRPRPLKEPRP	0.0921
RRIRGRPPRLPRPRPRPQHTPRP	0.588
RRIRQRPPRLPRPRPRPLWAPRP	0.00344

Sequence	shrunken log2 fold change
RRIRWRPPRLPRPRPRPQPFPRP	0.133
RRIRSRPPRLPRPRPRPGHVPRP	0.1
RRIRKRPPRLPRPRPRPIRPPRP	0.012
RRIRHRPPRLPRPRPRPDYAPRP	-0.171
RRIRGRPPRLPRPRPRPADYPRP	0.025
RRIRERPPRLPRPRPRPCLEPRP	-0.116
RRIRIRPPRLPRPRPRPSRPPRP	-0.00676
RRIRPRPPRLPRPRPRPRFMPRP	-0.0826
RRIRPRPPRLPRPRPRPPYLPRP	-0.376
RRIRPRPPRLPRPRPRPITVPRP	-0.298
RRIRKRPPRLPRPRPRPIQKPRP	0.0671
RRIRCRPPRLPRPRPRPHHAPRP	0.0208
RRIRGRPPRLPRPRPRPSDQPRP	0.796
RRIRWRPPRLPRPRPRPCWRPRP	0.0637
RRIRDRPPRLPRPRPRPYRMPRP	-0.0515
RRIRWRPPRLPRPRPRPNMAPRP	0.345
RRIRPRPPRLPRPRPRPMEIPRP	-0.00192
RRIRARPPRLPRPRPRPIWEPRP	0.473
RRIRARPPRLPRPRPRPFNHPRP	-0.436
RRIRYRPPRLPRPRPRPRPGPRP	0.219
RRIRFRPPRLPRPRPRPVMCPRP	-0.263
RRIRMRPPRLPRPRPRPDMNPRP	2.25
RRIRHRPPRLPRPRPRPCCCPRP	-0.421
RRIRDRPPRLPRPRPRPMGDPRP	0.25
RRIRPRPPRLPRPRPRPVWVPRP	0.0215

Sequence	shrunken log2 fold change
RRIRQRPPRLPRPRPRPWTWPRP	-0.0328
RRIRTRPPRLPRPRPRPEYSPRP	-0.0382
RRIRGRPPRLPRPRPRPSYHPRP	-0.299
RRIRMRPPRLPRPRPRPRFRPRP	0.784
RRIRSRPPRLPRPRPRPYTLPRP	-0.146
RRIRNRPPRLPRPRPRPAWPPRP	0.408
RRIRRRPPRLPRPRPRPDLRPRP	0.398
RRIRARPPRLPRPRPRPNVSPRP	-0.11
RRIRMRPPRLPRPRPRPYEPPRP	-0.352
RRIRARPPRLPRPRPRPSMEPRP	0.146
RRIRCRPPRLPRPRPRPNMWPRP	-0.0109
RRIRGRPPRLPRPRPRPKETPRP	-0.0578
RRIRLRPPRLPRPRPRPETCPRP	-0.0935
RRIRYRPPRLPRPRPRPRLTPRP	-0.0803
RRIRYRPPRLPRPRPRPVKEPRP	0.00241
RRIRARPPRLPRPRPRPRSWPRP	0.533
RRIRERPPRLPRPRPRPMYMPRP	-0.0017
RRIRIRPPRLPRPRPRPTWSPRP	0.047
RRIRDRPPRLPRPRPRPVCWPRP	0.747
RRIRWRPPRLPRPRPRPIQRPRP	0.0678
RRIRPRPPRLPRPRPRPGQDPRP	-0.0902
RRIRYRPPRLPRPRPRPCASPRP	-0.12
RRIRIRPPRLPRPRPRPWMTPRP	-0.53
RRIRSRPPRLPRPRPRPRQFPRP	0.165
RRIRERPPRLPRPRPRPHYLPRP	-0.139

Sequence	shrunken log2 fold change
RRIRVRPPRLPRPRPRPHAVPRP	-0.318
RRIRQRPPRLPRPRPRPADCPRP	-0.00699
RRIRKRPPRLPRPRPRPCILPRP	-0.283
RRIRYRPPRLPRPRPRPPTFPRP	-0.457
RRIRLRPPRLPRPRPRPTADPRP	0.346
RRIRYRPPRLPRPRPRPMWAPRP	-0.0298
RRIRYRPPRLPRPRPRPICFPRP	-0.332
RRIRSRPPRLPRPRPRPRVGPRP	0.578
RRIRVRPPRLPRPRPRPPPKPRP	1.11
RRIRQRPPRLPRPRPRPDHIPRP	-0.0197
RRIRVRPPRLPRPRPRPQWKPRP	-0.207
RRIRSRPPRLPRPRPRPEPAPRP	0.912
RRIRERPPRLPRPRPRPKLHPRP	-0.0464
RRIRIRPPRLPRPRPRPNVYPRP	-0.228
RRIRTRPPRLPRPRPRPKLQPRP	-0.114
RRIRRRPPRLPRPRPRPSLDPRP	0.34
RRIRFRPPRLPRPRPRPWSSPRP	0.0276
RRIRYRPPRLPRPRPRPVWYPRP	-0.105
RRIRIRPPRLPRPRPRPWCDPRP	-0.769
RRIRTRPPRLPRPRPRPIKEPRP	-0.253
RRIRHRPPRLPRPRPRPNHPPRP	-0.254
RRIRARPPRLPRPRPRPRHRPRP	0.412
RRIRYRPPRLPRPRPRPYVHPRP	-1.05
RRIRQRPPRLPRPRPRPIVPPRP	0.053
RRIRKRPPRLPRPRPRPTHIPRP	0.328

Sequence	shrunken log2 fold change
RRIRSRPPRLPRPRPRPFSHPRP	-0.388
RRIRVRPPRLPRPRPRPAIIPRP	-0.425
RRIRNRPPRLPRPRPRPWHCPRP	-0.116
RRIRTRPPRLPRPRPRPHVNPRP	-0.0758
RRIRIRPPRLPRPRPRPHFFPRP	-0.237
RRIRVRPPRLPRPRPRPLPFPRP	-0.367
RRIRSRPPRLPRPRPRPSPVPRP	-0.0362
RRIRYRPPRLPRPRPRPQNHPRP	-0.61
RRIRTRPPRLPRPRPRPWDSPRP	-0.00804
RRIRDRPPRLPRPRPRPTVVPRP	0.149
RRIRMRPPRLPRPRPRPDWHPRP	-0.136
RRIRNRPPRLPRPRPRPHCAPRP	0.0341
RRIRARPPRLPRPRPRPTHYPRP	0.702
RRIRFRPPRLPRPRPRPQFEPRP	-0.19
RRIRQRPPRLPRPRPRPDWIPRP	-0.035
RRIRARPPRLPRPRPRPVCPPRP	0.139
RRIRGRPPRLPRPRPRPKCEPRP	1.14
RRIRMRPPRLPRPRPRPFISPRP	-0.4
RRIRKRPPRLPRPRPRPINEPRP	-0.215
RRIRPRPPRLPRPRPRPIMIPRP	-0.169
RRIRVRPPRLPRPRPRPPEEPRP	0.0908
RRIRLRPPRLPRPRPRPNCMPRP	-0.415
RRIRFRPPRLPRPRPRPTNQPRP	-0.259
RRIRSRPPRLPRPRPRPYPQPRP	-0.267
RRIRKRPPRLPRPRPRPNIWPRP	0.519
